T1: recombinant human OX40 fused to a His-tag (Acro Biosystems, cat. no. OX0-H5224) (human, UniProt P43489 29-214)
T1 construct: bought protein; also called sOX40; soluble OX40; not shown: His-tag
T1 sequence: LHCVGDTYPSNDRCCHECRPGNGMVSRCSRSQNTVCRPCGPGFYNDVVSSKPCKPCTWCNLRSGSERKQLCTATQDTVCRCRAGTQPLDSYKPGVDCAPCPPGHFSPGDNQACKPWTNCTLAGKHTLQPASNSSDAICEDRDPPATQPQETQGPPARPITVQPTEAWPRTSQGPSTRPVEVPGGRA

T2: recombinant cynomolgus monkey OX40 (Acro Biosystems, cat. no. OX0-C5220) (cynomolgus monkey (Macaca fascicularis), UniProt P43489 29-214 (human entry))
T2 construct: bought protein; also called Cyno OX40
T2 chain: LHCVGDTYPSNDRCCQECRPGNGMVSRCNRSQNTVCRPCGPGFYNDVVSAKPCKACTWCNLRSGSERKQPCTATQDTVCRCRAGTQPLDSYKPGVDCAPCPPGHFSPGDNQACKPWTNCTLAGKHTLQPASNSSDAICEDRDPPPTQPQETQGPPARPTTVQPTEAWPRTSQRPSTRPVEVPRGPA


Columns and labels:
[1] = biological target: T1, recombinant human OX40 fused to a …; assay: BLI, Ab on AHC sensor, OX40 analyte
Experimental: (§1) Experiments were carried out while shaking at 1,000 RPM at 30° C. […] Next, AHC sensors were loaded with antibody (1 μg/mL in Sample Diluent) for 600 s. After a baseline measurement in sample diluent (100 s), the association (200 s) and dissociation (1,000 s) of human OX40 (Acro Biosystems, cat. no. OX0-H5224), and cynomolgus monkey OX40 (Acro Biosystems, cat. no. OX0-C5220) was determined using a concentration range of 0.78 to 800 nM with 2-fold dilution steps.
(§2) The theoretical molecular masses of the antigens based on the amino acid sequences were used for calculations. For each antibody, a reference sensor was used which was incubated with Sample Diluent instead of antigen. AHC sensors were regenerated by exposure to 10 mM glycine buffer pH 1.7 for 5 s, followed by neutralization in Sample Diluent for 5 s; both steps were repeated twice. Subsequently sensors were loaded again with antibody for the next cycle of kinetic measurements.
(§3) Data were acquired using Data Acquisition Software v12.0 (Sartorius) and analyzed with Data Analysis Software v12.0 (Sartorius). Data traces were corrected per antibody by subtraction of the reference sensor. The Y-axis was aligned to the last 10 s of the baseline and Interstep Correction alignment to dissociation as well as Savitzky-Golay filtering were applied. Data traces with a response <0.05 nm were excluded from analysis. […] The data was fitted with the 1:1 model using a window of interest for the association of 200 s and dissociation times set at 50 s, 200 s and 1,000 s. The dissociation time was chosen based upon R² value, visual inspection of the curve and at least 5% signal decay during the dissociation step.

[2] = biological target: T2, recombinant cynomolgus monkey OX40 …; assay: BLI, Ab on AHC sensor, OX40 analyte
Experimental: as §1, §2, §3

[3] = biological target: T1, recombinant human OX40 fused to a …; assay: BLI cross-block; first Ab (competitor): IgG1-CD134-007
Experimental: (§4) Amine Reactive 2nd Generation (AR2G) biosensors (Sartorius, cat. no. 18-5092) were activated for 300 s with a solution of 20 mM EDC (N-(3-Dimethylaminopropyl)-N-ethylcarbodiimide hydrochloride; Sartorius, cat. no. 18-1033) and 10 mM s-NHS (N-hydroxysulfosuccinimide sodium salt; Sartorius, cat. no. 18-1067). […] After a baseline measurement in Sample Diluent (Sartorius, cat. no. 18-1104) for 50 s, the AR2G biosensors containing immobilized antibody were loaded for 300 s with human OX40 fused to a His-tag (100 nM diluted in Sample Diluent; Acro Biosystems, cat. no. OX0-H5224). The association (300 s) of a second antibody (10 μg/mL in Sample Diluent) was determined. Sensors were regenerated by three cycles of exposure to 10 mM Glycine (Sigma-Aldrich, cat. no. 15527) buffer pH 2.5 for 5 s followed by neutralization in Sample Diluent for 5 s.
(§5) Data were acquired using Data Acquisition Software v12.0 (Sartorius) and analyzed with Data Analysis HT Software v12.0 (Sartorius). Data traces were corrected by subtraction of a reference curve (Sample Diluent instead of second antibody) in order to correct for the dissociation of antigen from the immobilized first antibody. The Y-axis was aligned to the start of the association step and Savitzky-Golay filtering was applied. The corrected association responses of the second antibodies were plotted in a matrix format (Table 5). Responses ≥0.1 nm were considered non-blocking antibody pairs, while responses <0.1 were considered blocking antibody pairs.

[4] = biological target: T1, recombinant human OX40 fused to a …; assay: BLI cross-block; first Ab (competitor): IgG1-CD134-012
Experimental: (§6) Experiments were carried out while shaking at 1,000 RPM and at 30° C.
as §4, §5

[5] = biological target: T1, recombinant human OX40 fused to a …; assay: BLI cross-block; first Ab (competitor): IgG1-CD134-SF2
Experimental: as §4, §5

[6] = biological target: T1, recombinant human OX40 fused to a …; assay: BLI cross-block; first Ab (competitor): IgG1-CD134-A4453
Experimental: as §4, §5

[7] = biological target: T1, recombinant human OX40 fused to a …; assay: BLI cross-block; first Ab (competitor): IgG1-CD134-Hu106
Experimental: as §4, §5

[8] = biological target: T1, recombinant human OX40 fused to a …; assay: BLI cross-block; first Ab (competitor): IgG1-CD134-IBI101
Experimental: as §4, §5

[9] = biological target: T1, recombinant human OX40 fused to a …; assay: BLI cross-block; first Ab (competitor): IgG1-CD134-RG7888
Experimental: as §4, §5

[10] = biological target: T1, recombinant human OX40 fused to a …; assay: BLI cross-block; first Ab (competitor): IgG1-CD134-ABBV368
Experimental: as §6, §4, §5

Row | Binder | Kd [1] | koff [1] | kon [1] | Kd [2] | koff [2] | kon [2] | association response [3] | association response [4] | association response [5] | association response [6] | association response [7] | association response [8] | association response [9] | association response [10]
1 | IgG1-CD134-003-HC6LC2-P329R-E345R (antibody, humanized; human IgG1 with P329R and E345R (Eu numbering), kappa; also called IgG1-CD134-003-HC6LC2-RR) heavy: not shown light: AAVLTQSPSSLSASVGDRVTITCQSSQIVVNNNFLSWYQQKPGKAPKLLIYDASNLASGVPDRFSGSGSGTDFTFTISSLQPEDIATYYCLGGYDDDAENAFGGGTKVEIKRTVAAPSVFIFPPSDEQLKSGTASVVCLLNNFYPREAKVQWKVDNALQSGNSQESVTEQDSKDSTYSLSSTLTLSKADYEKHKVYACEVTHQGLSSPVTKSFNRGEC | 3.4 nM | 0.00086 s⁻¹ | 250000 M⁻¹ s⁻¹ | 27 nM | 0.0029 s⁻¹ | 110000 M⁻¹ s⁻¹ | -0.04 nm | -0.02 nm | 0.22 nm | 0.31 nm | 0.74 nm | 0.34 nm | 0.65 nm | 0.85 nm
2 | IgG1-CD134-003 (antibody, rabbit-human chimeric IgG1, wild-type Fc; also called parental chimeric antibody) heavy: not shown light: AAVLTQTPSPVSAAVGGTVTIKCQSSQIVVNNNFLSWYQQKPGQPPKLLIYDASNLASGVPDRFSGSGSGTQFTLTISGVQSDDAATYYCLGGYDDDAENAFGGGTEVVVQRTVAAPSVFIFPPSDEQLKSGTASVVCLLNNFYPREAKVQWKVDNALQSGNSQESVTEQDSKDSTYSLSSTLTLSKADYEKHKVYACEVTHQGLSSPVTKSFNRGEC | 1.1 nM | 0.00035 s⁻¹ | 330000 M⁻¹ s⁻¹ | 3.5 nM | 0.00096 s⁻¹ | 280000 M⁻¹ s⁻¹ | -0.07 nm | -0.01 nm | 0.21 nm | 0.26 nm | 0.64 nm | 0.23 nm | 0.66 nm | 0.72 nm
3 | IgG1-CD134-007 (antibody, rabbit-human chimeric IgG1) heavy: not shown light: AQVLTQTPSPVSAAVGGTVTISCQSSESVWNNNWLAWYQQKPGQPPNLLIYEASTLASGVSSRFKGSGSGTQFTLTVSEVQSDDAATYYCQGGYYDSSPIWTFGGGTEVVVKRTVAAPSVFIFPPSDEQLKSGTASVVCLLNNFYPREAKVQWKVDNALQSGNSQESVTEQDSKDSTYSLSSTLTLSKADYEKHKVYACEVTHQGLSSPVTKSFNRGEC | 2 nM | 0.00075 s⁻¹ | 380000 M⁻¹ s⁻¹ | 7.1 nM | 0.0018 s⁻¹ | 260000 M⁻¹ s⁻¹ | 0.01 nm | 0.8 nm | 0.22 nm | 0.28 nm | 0 nm | 0 nm | 0.64 nm | -0.05 nm
4 | IgG1-CD134-012 (antibody, rabbit-human chimeric IgG1) heavy: not shown light: DIVMTQTPASVEAAVGGTVTIKCQASENIYSSLAWYQQKPGQPPKLLIYRTSTLASGVPSRFKGSGSGTQFTLTISDLESDDAATYYCQSYYHNSGGGYDYGFGGGTEVVAKRTVAAPSVFIFPPSDEQLKSGTASVVCLLNNFYPREAKVQWKVDNALQSGNSQESVTEQDSKDSTYSLSSTLTLSKADYEKHKVYACEVTHQGLSSPVTKSFNRGEC | 11 nM | 0.0016 s⁻¹ | 140000 M⁻¹ s⁻¹ |  |  |  | 0.82 nm | 0 nm | 0.14 nm | 0.22 nm | 0.51 nm | 0.28 nm | 0.42 nm | 0.51 nm
